Measurements reported in PMC8041466.

How the values were obtained:
[1] = molecular target: Cytotect (HCMV-IgG hyperimmunoglobulin preparation, human plasma pool, polyclonal IgG) (human); assay: flow cytometry on cells; same set-up; pairs of the vFcγR on infected cells with Cytotect IgG
[2] = molecular target: Rituximab (humanized anti-hCD20 IgG1) (human); assay: flow cytometry on cells; same set-up; pairs of the CD4-tailed vFcγR on the cells with Rtx
Sequence of Rituximab (humanized anti-hCD20 IgG1) (human) (heavy, as listed by the source, chain 1 of 2): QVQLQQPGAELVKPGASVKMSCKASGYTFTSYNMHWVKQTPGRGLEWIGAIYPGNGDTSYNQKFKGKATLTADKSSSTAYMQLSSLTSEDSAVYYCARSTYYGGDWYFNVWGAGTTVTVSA
Sequence of Rituximab (humanized anti-hCD20 IgG1) (human) (light, as listed by the source, chain 2 of 2): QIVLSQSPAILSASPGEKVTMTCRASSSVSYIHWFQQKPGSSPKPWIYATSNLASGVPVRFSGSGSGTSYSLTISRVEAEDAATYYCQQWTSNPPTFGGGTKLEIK

Substance: gp68 natively expressed on HCMV AD169/pBAC2 mutant-infected MRC-5 cells (from UniProt P16739 24-345) (natural protein)
- percent reduction of FcγRIII binding [1]: 60%

Substance: gp68-CD4 (gp68 with the transmembrane and cytosolic domains of human CD4)
- percent reduction of FcγRIII binding [2]: 60%
